Residue numbers refer to the chain shown, from its start.

The values that follow come from patent US20140271457A1 (AbbVie / Abbott, published 2014).

This assay concerns the target Recombinant Human IL-13 (human, UniProt P35225 35-146, limits assumed). The assay can be described thus: cell-based or functional assay.

Recombinant Human IL-13, sequence (P35225 35-146 limits assumed): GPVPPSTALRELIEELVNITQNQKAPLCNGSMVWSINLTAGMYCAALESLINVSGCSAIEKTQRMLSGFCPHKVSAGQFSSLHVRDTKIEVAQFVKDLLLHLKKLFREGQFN

B1: DVD3109 (bispecific antibody, human IgG1, kappa)
heavy: not shown
light: DVVMTQSPLSLPVTLGQPASISCRSSQSLVHSHGNTYLHWYQQRPGQSPRLLIYTVSNRFSGVPDRFSGSGSGTDFTLKISRVEAEDVGVYYCSQSTHVPYTFGGGTKVEIKRTVAAPDIQMTQSPSSLSASVGDRVTITCRASQDISQYLNWYQQKPGKAPKLLIYYTSRLQSGVPSRFSGSGSGTDFTLTISSLQPEDFATYFCQQGNTWPPTFGQGTKLEIKRTVAAPSVFIFPPSDEQLKSGTASVVCLLNNFYPREAKVQWKVDNALQSGNSQESVTEQDSKDSTYSLSSTLTLSKADYEKHKVYACEVTHQGLSSPVTKSFNRGEC
Turning to B1, the “IL-13 Neutralization Assay IC50” value came to 44 pM.

B2: DVD3112 (bispecific antibody, human IgG1, kappa)
heavy: not shown
light: B1 light
Take B2: the “IL-13 Neutralization Assay IC50” value turned out to be 17 pM.

B3: DVD3089 (bispecific antibody, human IgG1, kappa)
heavy: not shown
light: DVVMTQSPLSLPVTLGQPASISCRSSQSLVHSHGNTYLHWYQQRPGQSPRLLIYTVSNRFSGVPDRFSGSGSGTDFTLKISRVEAEDVGVYYCSQSTHVPYTFGGGTKVEIKRTVAAPDIQMTQSPSSLSASVGDRVTITCRASQLVSSAVAWYQQKPGKAPKLLIYWASARHTGVPSRFSGSGSGTDFTLTISSLQPEDFATYYCQQHYKTPFTFGQGTKLEIKRTVAAPSVFIFPPSDEQLKSGTASVVCLLNNFYPREAKVQWKVDNALQSGNSQESVTEQDSKDSTYSLSSTLTLSKADYEKHKVYACEVTHQGLSSPVTKSFNRGEC
For the molecule B3, the “IL-13 Neutralization Assay IC50” value is 74 pM.

B4: DVD3099 (bispecific antibody, human IgG1, kappa)
heavy: not shown
light: B3 light with R142K, A171T, R172L, K211R
In the case of B4, the “IL-13 Neutralization Assay IC50” value worked out at 14 pM.

B5: DVD3092 (bispecific antibody, human IgG1, kappa)
heavy: not shown
light: B3 light
For the molecule B5, the “IL-13 Neutralization Assay IC50” value is 60 pM.

B6: DVD3102 (bispecific antibody, human IgG1, kappa)
heavy: not shown
light: B3 light with R142K, A171T, R172L, K211R
Take B6: the “IL-13 Neutralization Assay IC50” value was 25 pM.

B7: DVD3106 (bispecific antibody)
heavy: not shown
light: DIQMTQSPSSLSASVGDRVTITCRASQDISQYLNWYQQKPGKAPKLLIYYTSRLQSGVPSRFSGSGSGTDFTLTISSLQPEDFATYFCQQGNTWPPTFGQGTKLEIKRTVAAPSVFIFPPDVVMTQSPLSLPVTLGQPASISCRSSQSLVHSHGNTYLHWYQQRPGQSPRLLIYTVSNRFSGVPDRFSGSGSGTDFTLKISRVEAEDVGVYYCSQSTHVPYTFGGGTKVEIKRTVAAPSVFIFPPSDEQLKSGTASVVCLLNNFYPREAKVQWKVDNALQSGNSQESVTEQDSKDSTYSLSSTLTLSKADYEKHKVYACEVTHQGLSSPVTKSFNRGEC
Turning to B7, the “IL-13 Neutralization Assay IC50” value came out at 74 pM.

B8: DVD3116 (bispecific antibody)
heavy: not shown
light: B7 light with S30E, Q31N, W94Q
As for B8, the “IL-13 Neutralization Assay IC50” value was found to be 81 pM.

B9: DVD3103 (bispecific antibody, human IgG1, kappa)
heavy: not shown
light: DIQMTQSPSSLSASVGDRVTITCRASQDISQYLNWYQQKPGKAPKLLIYYTSRLQSGVPSRFSGSGSGTDFTLTISSLQPEDFATYFCQQGNTWPPTFGQGTKLEIKRGGSGGGGSGDIQMTQSPSSLSASVGDRVTITCRASQLVSSAVAWYQQKPGKAPKLLIYWASARHTGVPSRFSGSGSGTDFTLTISSLQPEDFATYYCQQHYKTPFTFGQGTKLEIKRTVAAPSVFIFPPSDEQLKSGTASVVCLLNNFYPREAKVQWKVDNALQSGNSQESVTEQDSKDSTYSLSSTLTLSKADYEKHKVYACEVTHQGLSSPVTKSFNRGEC
For B9, the “IL-13 Neutralization Assay IC50” value was 42 pM.

B10: DVD3107 (bispecific antibody)
heavy: not shown
light: DIQMTQSPSSLSASVGDRVTITCRASQDISQYLNWYQQKPGKAPKLLIYYTSRLQSGVPSRFSGSGSGTDFTLTISSLQPEDFATYFCQQGNTWPPTFGQGTKLEIKRTVAAPDVVMTQSPLSLPVTLGQPASISCRSSQSLVHSHGNTYLHWYQQRPGQSPRLLIYTVSNRFSGVPDRFSGSGSGTDFTLKISRVEAEDVGVYYCSQSTHVPYTFGGGTKVEIKRTVAAPSVFIFPPSDEQLKSGTASVVCLLNNFYPREAKVQWKVDNALQSGNSQESVTEQDSKDSTYSLSSTLTLSKADYEKHKVYACEVTHQGLSSPVTKSFNRGEC
Turning to B10, the “IL-13 Neutralization Assay IC50” value was 29 pM.

B11: DVD3091 (bispecific antibody, human IgG1, kappa)
heavy: not shown
light: DVVMTQSPLSLPVTLGQPASISCRSSQSLVHSHGNTYLHWYQQRPGQSPRLLIYTVSNRFSGVPDRFSGSGSGTDFTLKISRVEAEDVGVYYCSQSTHVPYTFGGGTKVEIKRTVAAPSVFIFPPDIQMTQSPSSLSASVGDRVTITCRASQLVSSAVAWYQQKPGKAPKLLIYWASARHTGVPSRFSGSGSGTDFTLTISSLQPEDFATYYCQQHYKTPFTFGQGTKLEIKRTVAAPSVFIFPPSDEQLKSGTASVVCLLNNFYPREAKVQWKVDNALQSGNSQESVTEQDSKDSTYSLSSTLTLSKADYEKHKVYACEVTHQGLSSPVTKSFNRGEC
With B11, the “IL-13 Neutralization Assay IC50” value came out at 56 pM.

B12: DVD3101 (bispecific antibody, human IgG1, kappa)
heavy: not shown
light: B11 light with R149K, A178T, R179L, K218R
For B12, the “IL-13 Neutralization Assay IC50” value was 37 pM.

B13: DVD3111 (bispecific antibody, human IgG1, kappa)
heavy: not shown
light: DVVMTQSPLSLPVTLGQPASISCRSSQSLVHSHGNTYLHWYQQRPGQSPRLLIYTVSNRFSGVPDRFSGSGSGTDFTLKISRVEAEDVGVYYCSQSTHVPYTFGGGTKVEIKRTVAAPSVFIFPPDIQMTQSPSSLSASVGDRVTITCRASQDISQYLNWYQQKPGKAPKLLIYYTSRLQSGVPSRFSGSGSGTDFTLTISSLQPEDFATYFCQQGNTWPPTFGQGTKLEIKRTVAAPSVFIFPPSDEQLKSGTASVVCLLNNFYPREAKVQWKVDNALQSGNSQESVTEQDSKDSTYSLSSTLTLSKADYEKHKVYACEVTHQGLSSPVTKSFNRGEC
Take B13: the “IL-13 Neutralization Assay IC50” value worked out at 18 pM.

B14: DVD3104 (bispecific antibody, human IgG1, kappa)
heavy: not shown
light: DIQMTQSPSSLSASVGDRVTITCRASQDISQYLNWYQQKPGKAPKLLIYYTSRLQSGVPSRFSGSGSGTDFTLTISSLQPEDFATYFCQQGNTWPPTFGQGTKLEIKRTVAAPDIQMTQSPSSLSASVGDRVTITCRASQLVSSAVAWYQQKPGKAPKLLIYWASARHTGVPSRFSGSGSGTDFTLTISSLQPEDFATYYCQQHYKTPFTFGQGTKLEIKRTVAAPSVFIFPPSDEQLKSGTASVVCLLNNFYPREAKVQWKVDNALQSGNSQESVTEQDSKDSTYSLSSTLTLSKADYEKHKVYACEVTHQGLSSPVTKSFNRGEC
As to B14, the “IL-13 Neutralization Assay IC50” value is 1050 pM.

B15: DVD3088 (bispecific antibody, human IgG1, kappa)
heavy: not shown
light: DVVMTQSPLSLPVTLGQPASISCRSSQSLVHSHGNTYLHWYQQRPGQSPRLLIYTVSNRFSGVPDRFSGSGSGTDFTLKISRVEAEDVGVYYCSQSTHVPYTFGGGTKVEIKRGGSGGGGSGDIQMTQSPSSLSASVGDRVTITCRASQLVSSAVAWYQQKPGKAPKLLIYWASARHTGVPSRFSGSGSGTDFTLTISSLQPEDFATYYCQQHYKTPFTFGQGTKLEIKRTVAAPSVFIFPPSDEQLKSGTASVVCLLNNFYPREAKVQWKVDNALQSGNSQESVTEQDSKDSTYSLSSTLTLSKADYEKHKVYACEVTHQGLSSPVTKSFNRGEC
Regarding B15, the “IL-13 Neutralization Assay IC50” value is 103 pM.

B16: DVD3098 (bispecific antibody, human IgG1, kappa)
heavy: not shown
light: B15 light with R146K, A175T, R176L, K215R
Turning to B16, the “IL-13 Neutralization Assay IC50” value was 59 pM.
